Results on 20 sequences are retold here after the DeepSol protein solubility set.

The data set can be described thus: soluble on expression in E. coli; label from the status in PepcDB or PDB records.
Regarding “MGSDKIHHHHHHMVGIVLASHGNFAEGIYQSAEMIFGKQQNVQTVTLSPNEGPEDFLNKLKQAIDSFDDQKQVLLLIDLWGGTPFNQSSGLLSGHEDSWAVVTGMNLPMVIEAYGSRSSMDSAQEIATHIIETGKDGIRIKPESLEPKKATATVKSSGQPHGTIAPGTVLGDGKIKYVLARVDSRLLHGQVAMSWTKSTNPNRILVVSDSVAKDRLRKSMIVEAAPPGVNTNVIPIKKMIEVAKDPRFGNTKALVLFENPEDALKTIEGGVDIKELNIGSMSHAVGKVAVNKVLSLGKEDVEAFDGLKKLGVKFDVRKVPGDSSENMDNIVIKLEKIYQVLNLKKIRRV”, the “soluble on expression in E. coli” value was “not soluble”.

For “MGSDKIHHHHHHMIKHHPHAELLQAHAQGELPLSMSMAVAAHCALCQECQNQIAKLTEQAAKLAFVSSSDDPVQHNASNEIDVVDNDPWQQMLSNIMALPESTMSEPYIESSVTVSHRNIRYQIPRVFRQHIALPWQQIGKVSRMRFDIDEKNTRASLLYIEALGEIPQHTHKGFELTLLLSGEFSDSTGNYVVGDFIILDGNTQHSPTTQTGCLCYTVLDAPLYFTKGISKLLNPIGELIY”, the “soluble on expression in E. coli” value was “not soluble”.

Take “MGSDKIHHHHHHMEPNDAVVGVDVSKEHLDVYLMPTGDQKRVTNDDAGCAELTTWLITNAPCRIVLEATGGLEMLAVSTLSAAGLPVVVVNPRQVRNFAKACGLLAKTDILDAKIIARFAQAIKPEIRPLKDETSQNLAALLARRRQLVEMLVAEKNRVISAAPTVRKGIMTHIAWLTQQIDDVDKDISTLIQSSESWKAKEEILTSVKGIGPVTAATILAALPELGTISRQQLGALVGVCPYNRDSGKFRGKRAISGGRATVRSVLYMATLCAARFNPVIKAFYQRLTSAGKLHKVAITACMRKLLTILNAMVKNNQKWDHSKFTPLLH”: the “soluble on expression in E. coli” value was “not soluble”.

Turning to “SDLQAAGAQAQGAAEPSRGPPLPSARGAPPSPEAGFATADHSGQERETEKAMDRLARGTQSIPNDSPARGEGTHSEEEGFAMDEEDSDGELNTWELSEGTNCPPKEQPGDLFNEDWDSELKADQGNPYDADDIQESISQELKPWVCCAPQGDMIYDPSWHHPPPLIPYYSKMVFETGQFDDAED”, the “soluble on expression in E. coli” value is recorded as “soluble”.

On to “GSSGSSGTRTYDREGFKKRAACLCFRSEQEDEVLLVSSSRYPDQWIVPGGGMEPEEEPGGAAVREVYEEAGVKGKLGRLLGIFENQDRKHRTYVYVLTVTEILEDWEDSVNIGRKREWFKVEDAIKVLQCHKPVHAEYLEKLKLG”, for which the “soluble on expression in E. coli” value was “soluble”.

Consider “MENHDLVIVGGGISGLQAAISAKKSGVQDIVLIEAEDSLGGILNQCIYTGFGMEDFKEELTGTEYVQRFIDEFLELNIEYKLNTTVIKISKNKVITAVSPNEGIIEIKACSIIFAAGAVEKPQKSIRVLTKDLSGIYSALTVGRFINIHGYMPGKSIVILGANKIGNALANRIFIEGGKVKAVIDSEVGFDERNEIIEFLAEINIPFLYNYNIVKIKGSERIEGIYISDENGEKFISCDTLILALKLNPNDKILREANIKILNKERNEINTNVPGVFIVGNALYIHESNEGSPLENRKAGEMSAEYIRATLLEHHHHHH”, for which the “soluble on expression in E. coli” value is reported as “not soluble”.

As for “GPGSMSQLWVKRAKAEMTRHSRVLETINRVFPMPFEERRSRVGMTSYATYRWLRYFPVILVPVVVMGTLLETRDNPQEHVFTSLHLWLADHGVFRHDTVKALNPAFEDERRSIEWKANDRKWRFTGTDMPSEREIREFAAINIDHQSRRQL”, the “soluble on expression in E. coli” value is reported as “soluble”.

For the sequence “MTYLVTGATGGLGGYALNYLKELVPMSDIYALVRSKEKGADLKAAGFNIRVGDYSDAESMKQAFAGIDRVLFVSGAPGNRQVEHENVINAAKKAGVSYIAYTSFAGADKSTSALAEDHFFTEKVIEKSGIAHTFLRNNWYFENEMPMIGGALSAGKFVYAAENGKVGWALKREYAEVAAKAVAGAGFPEILELSGPLMTYEELTKALKEATGKDFDVISSDDKGFVENLVSVGLPQPVAEMFLSFQHDIKNDQLDVTSDDFEKALGKPLTNRVDALRELLKLEHHHHHH”, the “soluble on expression in E. coli” value was “soluble”.

For “MSLNIAMTGATGYIGKHLSNYLTEKGGHRIIPLGRAMFREGMSGLLVQTLTHCDVIINLAGAPINQRWTPEHKQELFNSRITVTHRIIRALNAVKTKPKLMISASAVGYYPSLVESDEYTQTRGDGFLSDLCYAWEKEAKRCPQPTRLVITRFGVVLSPDGGAMQQMLRPLRATKVAAVIGPGTQPFPWIDIRDLCCAMAFFIENEELRGVFNLVAPQAVSQSTFTRAMGKAYHAWTTEGHHHHHH”, the “soluble on expression in E. coli” value is listed as “not soluble”.

For the sequence “VTQPSGLKNLLRAAAGALPVVPRTDQLPNRTVTVEELPIDPANVAAYAAVTGLRYGNQVPLTYPFALTFPSVMSLVTGFDFPFAAMGAIHTENHITQYRPIAVTDAVGVRVRAENLREHRRGLLVDLVTNVSVGNDVAWHQVTTFLHQQRTSLSGEPKPPPQKKPKLPPPAAVLRITPAKIRRYAAVGGDHNPIHTNPIAAKLFGFPTVIAHGMFTAAAVLANIEARFPDAVRYSVRFAKPVLLPATAGLYVAEGDGGWDLTLRNMAKGYPHLTATVRGL”, the “soluble on expression in E. coli” value is recorded as “not soluble”.

For the sequence “MGSDKIHHHHHHMVKTVNWRDLLEPQTKIRDPLYGYIWVTDDELQIIDTPIFQRLRRVNQLALTKYVYPTAEHSRFVHSLGAMHCATQIFTGILNNTHSYHGIRAIDSANMLRRLRYAALLHDIGHIAFSHAAEKLILNPLQHEHLGQFIIANYSPISSILGEHIKPVISILADSVTQDNRLLHQIISGHLDADRADYLMRDSHACGVKYGEYDFERYMQAFGAINESNELKLFVHERDIFVIESFLVARHHYNMQVPYHRTRMGYDIILGRFLKEFLPKCDDAKLGLTVEEGAYTKVDLQKFEFFDDYSVFNHIKHEARTGNLWANMLLRQGHLCPVYDTTDSVDRGGKVFKKIIRRLKAKNFVEDDDFFQCRKEITASKLISTDEKENSLADTSRETIYVRTKSGKLVDIVKHSNIVRALRPVTIYRIYTSQKRKSEAEAVIADVCRKTQVDRRG”, the “soluble on expression in E. coli” value is on record as “not soluble”.

Take “MAHVVVLGAGLGGSIMAYELHQQLRSEDRITVVTRDPTYHFVPSNPWVAVGWRTRSHISADLAPTMQRLGIAFRTVPATRLVPAENRVELADGTALDYDYLVVATGPELAFDEIEGFGPEGHTQSICHVDHAEAAHAAFERFCENPGPIVVGAAQGASCFGPAYEFAFILDAALRRRRIRDRVPMTFVTSEPYIGHLGLDGVGDTKGLLESALRSRHIKWITSARISRVEAGTMHVEEVAEGGATKPHALPFGYAMMLPAFRGVKAVSGIEGLSNPRGFTLVDPHQRNPTFPNIFAVGVCVAIPPMGVTPVPVGVPKTGFMIESMVTATAHNIGALVRGKEPDEVATWNAVCLADFGDRGIAFIAQPQIPPRNVNWSAEGRWVHFAKIAFEKYFLRKVKLGTAEPLYEWAAMKMLGIDKLKAARKGLEHHHHHH”: the “soluble on expression in E. coli” value is “not soluble”.

Turning to “VTTMHDVARAAGVSQAAVSYAYNQPHKLSAARRAHIFQVAAELGYAGPNPAGRNLRTGQVGALGLMITDSLRYAFDDPATSQLLKGISEVGELAEVALTLLPCPLESTRVAEGSGVLVRGAVDGFLAYAMPDGHPGMQTAMSRRLPIVVIDGPNPGGLPRVGIRDRQAAKEIAEHVLSLGHRRVGFLVDRLVPDGKGGPVDAARTRAARDHVMKERLAGYASACRKYTVPWSSTVVVEAGGFDYELSRTAVETLLDAGPVTAVIAASDLLALAAIDVAHERGLRVPQDLSVVGFDDIPAARAAGLTTVRQPLVDKGREAAQLLLDIIGGGAGREITLPTELVVRESAGPVTADR”, the “soluble on expression in E. coli” value is given as “not soluble”.

For “MMCTKEFDYLNEANQATRFQNVWLPGRYTDCNHMKRKQEEVNGEENSTWRSSSSFQ”, the “soluble on expression in E. coli” value is listed as “not soluble”.

As to “MDSGMVTPELKKAFAERGIDIIPVDVGTKMLVNELHPSHHDSTQVVIGSPIIPAPGNIDPQLRSYRIRRRMTVEANPFLLDHVIAGTPVLPATCGMSWMINACEECYPGYRYFRCQDFKILKGITFNDKVASEHILEIQEVAKHGSESIEFKTKVLSKTPEGKIHYHFSAHITIVRELPAAPVYESLDMTEDHTIGAIGKDFYQKGGLSLFHGISFQQITRVLNINSQKITVECCWAEIPLETQGQFPVKWHNPYATDLSTQPLWLWLSHVHQEVCLPGQITKSEQFRAIPRNKPFYVSCEIEHKTPSGVTADIILHDREGKIYFRIYQAKAIIAPMNLHLEHHHHHH”, the “soluble on expression in E. coli” value is given as “not soluble”.

Turning to “VNKKDITYWEKRQERKYLAGEKKLDEYYKGLQKAFRQAKREIQSVINDFYMRYAKENKVSYAEAQKLLDKAEIGELQDFIDLVNKNMGKYNRKLNNMSIKARITRYQALEKQIDAILQQLYAIEYEYKGKELLKEVYEDSYYRTWFNIDQYHGFHQEFAQINPRTIEELIKYPWNGASFSDRIWKQKDHMLQVLKEDITTMLIQGKNPQTLARDFARRFKTKEYEAYRLLHTESSFIIEQGTLAAYKEDGVEKYQILATLDMRTSDICRSEDGKIYDVDEATVGVNYPPYHPFCRTTTVPYYEDAEVGTRVARDPVTGRSYEVPANMTYEQWKNRYIDQPDNIIRQEILSNPERLDNYSIQHYNKHKEGTKQYEQYKQSRLKKGQTEQSSLLISYDEAKEIIKKYAGTGVFSRDRKGKWRNEEFVDVDSIIGVVHNIDGTVTPTNRIQIKYGKNSVHIVPVLPRKERNK”, the “soluble on expression in E. coli” value is listed as “soluble”.

Regarding “MGHHHHHHSHMTKHPPNRRGISFEVGAQLEARDRLKNWYPAHIEDIDYEEGKVLIHFKRWNHRYDEWFCWDSPYLRPLEKIQLRKEGLHEEDGSSEFQINEQVLACWSDCRFYPAKVTAVNKDGTYTVKFYDGVVQTVKHIHVKAFSKDQNIVGNARPKETDHKSLSSSPDKREKFKEQRKATVNVKKDKEDKPLKTEKRPKQPDKEGKLICSEKGKVSEKSLPKNEKEDKENISENDREYSGDAQKTRQTPFHSSYCCGFKLSNFATNNIGTEKKENIKRM”, the “soluble on expression in E. coli” value is on record as “not soluble”.

With “MHLYSSDFPLMMDEKELYEKWMRTVEMLKAEGIIRSKEVERAFLKYPRYLSVEDKYKKYAHIDEPLPIPAGQTVSAPHMVAIMLEIANLKPGMNILEVGTGSGWNAALISEIVKTDVYTIERIPELVEFAKRNLERAGVKNVHVILGDGSKGFPPKAPYDVIIVTAGAPKIPEPLIEQLKIGGKLIIPVGSYHLWQELLEVRKTKDGIKIKNHGGVAFVPLIGEYGWKEHHHHHH”, the “soluble on expression in E. coli” value was “soluble”.

Turning to “MKKRLNIGLVGLGCVGSAVAKILQENQEIIKDRAGVGIGIKKAVVRDVKKHKGYPFEISNDLESLIEDEEIDIVVELMGGVEAPYLLAKKTLAKQKAFVTANKAMLAYHRYELEQTAKNTPIGFEASVCGGIPIIKALKDGLSANHILSFKGILNGTSNYILSQMFKNQASFKDALKDAQHLGYAELNPEFDIKGIDAAHKLLILASLAYGIDAKLEEILIEGIEKIEPDDMEFAKEFGYSIKLLGIAKKHPDCIELRVHPSMIKNECMLSKVDGVMNAISVIGDKVGETLYYGAGAGGEPTASAVISDIIEIARKKSSLMLGFETPQKLPLKPKEEIQCAYYARLLVSDEKGVFSQISAILAQNDISLNNVLQKEILHSNKAKILFSTHTTNEKSMLNALKELENLQSVLDTPKMIRLEN”, the “soluble on expression in E. coli” value is listed as “not soluble”.

For the sequence “MAHHHHHHMPADSTATAREVPIDTVALQLDAEMAQMRLQRQRYSTLCTRKNRLQAHVDELNAQGKDLTFQRQREQTRSAQELEHGLASSSTSLPEISRTPGDQAQLPAEVLGGALQELTACITERRELLQHLRDGSHDCLKLRDARFAKCSLSTVAGLDDHVASQSGIHASDTTAVIAGRGEAPTRCAARNPVSDSAVTSAAPASGLRHVEEGLAKAHQALCRGEEKALAEREYLLLLLQQCAQPQQLQQGRGRLACRQMAD”, the “soluble on expression in E. coli” value was “not soluble”.
